These results are taken from publication PMC3901001.

This experiment has as its target full-length human α isoform of CaMKII (CaMKIIα), wild type (human) (UniProt Q9UQM7). The experiment is described as follows: single-molecule TIRF colocalisation; mixed with ATP in the absence of Ca2+/CaM (37°C by the DLS legend).
UniProt Q9UQM7, sequence (Q9UQM7 whole entry, canonical isoform): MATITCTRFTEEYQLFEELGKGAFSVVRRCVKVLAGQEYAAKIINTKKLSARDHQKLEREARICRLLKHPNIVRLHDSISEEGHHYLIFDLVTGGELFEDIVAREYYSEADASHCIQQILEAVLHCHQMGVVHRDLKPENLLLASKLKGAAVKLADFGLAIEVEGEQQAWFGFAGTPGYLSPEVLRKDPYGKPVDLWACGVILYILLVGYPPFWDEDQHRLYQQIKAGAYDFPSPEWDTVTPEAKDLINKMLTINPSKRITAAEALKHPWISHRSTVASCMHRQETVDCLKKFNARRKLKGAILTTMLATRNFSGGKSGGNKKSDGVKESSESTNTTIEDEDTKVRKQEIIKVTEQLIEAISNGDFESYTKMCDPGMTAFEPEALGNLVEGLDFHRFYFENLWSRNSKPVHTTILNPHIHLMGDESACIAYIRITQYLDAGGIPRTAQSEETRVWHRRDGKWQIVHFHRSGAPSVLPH

On to “CaMKII^T286D, constitutively active mutant of full-length human CaMKIIα (enzyme)”, for which the percent colocalisation (plateau) stood at 60%.
